Our source for the percent of parent values is PMC4930482.

To fix the notation:
B1: RNF26, wild type (coIP of Figures 5A and 5B) [not stated] / EPS15 (endogenous) [human (endogenous in a human melanoma cell line and in HEK293T)] (parent)
chain 1: MEAVYLVVNGLGLVLDVLTLVLDLNFLLVSSLLASLAWLLAFVYNLPHTVLTSLLHLGRGVLLSLLALIEAVVRFTCGGLQALCTLLYSCCSGLESLKLLGHLASHGALRSREILHRGVLNVVSSGHALLRQACDICAIAMSLVAYVINSLVNICLIGTQNLFSLVLALWDAVTGPLWRMTDVVAAFLAHISSSAVAMAILLWTPCQLALELLASAARLLASFVLVNLTGLVLLACVLAVTVTVLHPDFTLRLATQALSQLHARPSYHRLREDVMRLSRLALGSEAWRRVWSRSLQLASWPNRGGAPGAPQGDPMRVFSVRTRRQDTLPEAGRRSEAEEEEARTIRVTPVRGRERLNEEEPPGGQDPWKLLKEQEERKKCVICQDQSKTVLLLPCRHLCLCQACTEILMRHPVYHRNCPLCRRGILQTLNVYL
chain 2: MAAAAQLSLTQLSSGNPVYEKYYRQVDTGNTGRVLASDAAAFLKKSGLPDLILGKIWDLADTDGKGILNKQEFFVALRLVACAQNGLEVSLSSLNLAVPPPRFHDTSSPLLISGTSAAELPWAVKPEDKAKYDAIFDSLSPVNGFLSGDKVKPVLLNSKLPVDILGRVWELSDIDHDGMLDRDEFAVAMFLVYCALEKEPVPMSLPPALVPPSKRKTWVVSPAEKAKYDEIFLKTDKDMDGFVSGLEVREIFLKTGLPSTLLAHIWSLCDTKDCGKLSKDQFALAFHLISQKLIKGIDPPHVLTPEMIPPSDRASLQKNIIGSSPVADFSAIKELDTLNNEIVDLQREKNNVEQDLKEKEDTIKQRTSEVQDLQDEVQRENTNLQKLQAQKQQVQELLDELDEQKAQLEEQLKEVRKKCAEEAQLISSLKAELTSQESQISTYEEELAKAREELSRLQQETAELEESVESGKAQLEPLQQHLQDSQQEISSMQMKLMEMKDLENHNSQLNWCSSPHSILVNGATDYCSLSTSSSETANLNEHVEGQSNLESEPIHQESPARSSPELLPSGVTDENEVTTAVTEKVCSELDNNRHSKEEDPFNVDSSSLTGPVADTNLDFFQSDPFVGSDPFKDDPFGKIDPFGGDPFKGSDPFASDCFFRQSTDPFATSSTDPFSAANNSSITSVETLKHNDPFAPGGTVVAASDSATDPFASVFGNESFGGGFADFSTLSKVNNEDPFRSATSSSVSNVVITKNVFEETSVKSEDEPPALPPKIGTPTRPCPLPPGKRSINKLDSPDPFKLNDPFQPFPGNDSPKEKDPEIFCDPFTSATTTTNKEADPSNFANFSAYPSEEDMIEWAKRESEREEEQRLARLNQQEQEDLELAIALSKSEISEA
B2: RNF26, wild type (coIP of Figures 5A and 5B) [not stated] / TOLLIP (endogenous) [human (endogenous in a human melanoma cell line and in HEK293T)] (parent)
chain 1: B1 chain 1
chain 2: not shown
B3: RNF26, wild type (coIP of Figures 5A and 5B) [not stated] / USP15 (endogenous) [human (endogenous in a human melanoma cell line and in HEK293T)] (parent)
chain 1: B1 chain 1
chain 2: MAEGGAADLDTQRSDIATLLKTSLRKGDTWYLVDSRWFKQWKKYVGFDSWDKYQMGDQNVYPGPIDNSGLLKDGDAQSLKEHLIDELDYILLPTEGWNKLVSWYTLMEGQEPIARKVVEQGMFVKHCKVEVYLTELKLCENGNMNNVVTRRFSKADTIDTIEKEIRKIFSIPDEKETRLWNKYMSNTFEPLNKPDSTIQDAGLYQGQVLVIEQKNEDGTWPRGPSTPKSPGASNFSTLPKISPSSLSNNYNNMNNRNVKNSNYCLPSYTAYKNYDYSEPGRNNEQPGLCGLSNLGNTCFMNSAIQCLSNTPPLTEYFLNDKYQEELNFDNPLGMRGEIAKSYAELIKQMWSGKFSYVTPRAFKTQVGRFAPQFSGYQQQDCQELLAFLLDGLHEDLNRIRKKPYIQLKDADGRPDKVVAEEAWENHLKRNDSIIVDIFHGLFKSTLVCPECAKISVTFDPFCYLTLPLPMKKERTLEVYLVRMDPLTKPMQYKVVVPKIGNILDLCTALSALSGIPADKMIVTDIYNHRFHRIFAMDENLSSIMERDDIYVFEININRTEDTEHVIIPVCLREKFRHSSYTHHTGSSLFGQPFLMAVPRNNTEDKLYNLLLLRMCRYVKISTETEETEGSLHCCKDQNINGNGPNGIHEEGSPSEMETDEPDDESSQDQELPSENENSQSEDSVGGDNDSENGLCTEDTCKGQLTGHKKRLFTFQFNNLGNTDINYIKDDTRHIRFDDRQLRLDERSFLALDWDPDLKKRYFDENAAEDFEKHESVEYKPPKKPFVKLKDCIELFTTKEKLGAEDPWYCPNCKEHQQATKKLDLWSLPPVLVVHLKRFSYSRYMRDKLDTLVDFPINDLDMSEFLINPNAGPCRYNLIAVSNHYGGMGGGHYTAFAKNKDDGKWYYFDDSSVSTASEDQIVSKAAYVLFYQRQDTFSGTGFFPLDRETKGASAATGIPLESDEDSNDNDNDIENENCMHTN

Variants of B1 are the subject of one experiment. Nature of the experiment: coIP. The note with it: with EPS15 (endogenous) [human (endogenous in a human melanoma cell line and in HEK293T)]; HEK293T cells; n = 3; read off a plot.
In the case of chain 1 I382R, the percent of parent worked out at 22 % Co-IP.

In another experiment the parent is B2. Nature of the experiment: coIP. Also on record: reference not given here. The note with it: with TOLLIP (endogenous) [human (endogenous in a human melanoma cell line and in HEK293T)]; HEK293T cells; n = 3; read off a plot.
For the variant chain 1 I382R, the percent of parent turned out to be 12 % Co-IP.

The variants in a further experiment derive from B3. Nature of the experiment: coIP. The note with it: with USP15 (endogenous) [human (endogenous in a human melanoma cell line and in HEK293T)]; HEK293T cells; n = 3; read off a plot.
In the case of chain 1 I382R, the percent of parent was found to be 27 % Co-IP.
